Test results from article PMC11742489.
“And” between values parts separate entries of the source, which are not always exact repeats. Equal entries are not always repeated.

Molecular target: Ca2+/CaM
Assay: ITC; Cav1.2-NSCaTE peptide (20-fold molar excess) injected into CaM (~50 uM); 50 mM HEPES, 100 mM KCl, 2 mM MgCl2, pH 7.5, 5 mM CaCl2 (Ca2+-saturating); 20°C by the legend, 25°C by the methods; one-site binding model

Cav1.2-NSCaTE(51-67) peptide was tested, and the stoichiometry N was 2 and 1.7.
